Measured values as given in a protein production outcome set (Wang et al. 2014).

experiment: label from the status in PepcDB records
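Note: failed if final PepcDB status was selected cloned or expressed and not failed if soluble or beyond.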

Row | Sequence | protein production
1 | DQKGDKVVIRGNNYVSIATGLNWYLKYYAGIHLSWNGMQAKLPAVLPPVTKKERRETTLPYRYDLNYCTFSYSMAFWDWNRWEKEIDWMALHGINIPLAVTGAEAVWHNVLDKLGYTKTEINEFISGPGFFAWWLMNNLEGWGGPNPDSWYTRQIALQKKILKRMREYGIEPVLPGYCGMVPHNAKEKLGLNVSDPGTWCGYRRPAFLQPSDPRFEEISSLYYKELEKLYGKANFYSMDPFHEGGNTAGVDLDAAGKAVMKAMKKANPKAVWVAQAWQANPRPKMIENLKAGDLLILDLTSECRPQWGDSTSEWYRKNGYGQHDWIYCMLLNYGGNVGLHGKMDNVIDNFYLAKADPHASATLKGVGMTPEGIENNPVMYELVMELPWRPDRFTKEEWLKEYVKARYGVDDPVVQAAWTNLANSIYNSPKNLTQQGTHESVFCARPAEDVYQVSSWSEMKDYYRPQEVIEAARLMVSVADRFKGNNNFEYDLVDIVRQALAEKGRLMQKAVTAAYRAGDKQLFALASGKFLDLILLQDKLLGTRPEFRVGKWIEEARALGDTPEEKELYEWNARVQITTWGNRNAADYGGLRDYAHKEWNGLLKDFYYMRWKLYFDFLSQRIEGKTPAEIDFYAIEEPWTKAANPYSAEAEGDCIEVAKQVMQAVE | failed
2 | DRDQTLALMAQMTIPTLATWCAVYTIADQASEPYLSYVLHEDEDRIDGVKALLSKIPPPEPIPTPGARVWSAPAQAAHEAALRTSMRSLGLGEPATVSSGIGTTLATASAVGGETVVLPLVARNRVIGMLTLGKPSDEHFRQEILELAEDLSRRAALALDNARLYSERTAISQSLQRSLLPPDLPHI | failed
3 | DRIYLVAPEDIYLVSVEERQLSIFVDQQVYKMTGTLNSIEQKLPATLFIKTHRSFILNRTKIQEIQPWFNNTLQVILTNGSKVPVSRSYVKEFKEKLGLS | failed
4 | DRLRAFNHRLQNTPESVKVLRDWNMELDKNVTEVQGRIIGQQNIVFHNGKVPAGENADWQRHFRDQRMLTTPSDGLDRWAVIAPQRNSHELRTLLDSLYR | failed
5 | DRRYKWQTVVSEQLVGAGFNEILNNSLTAGSYYEGLKTHPREMAVELMNPLSQELNCMRQTLLFGGLETLSHNLRRKHLSLYLFEWGKCYRFHAAKRTDETPLSAYAEDDRLGIWICGQRVHNSWAHPEEPTSVFELKAVVEQVLCRVGIETGAYTLETADNDLYASAMEVKTRSGKLLGTFGTVSTEQIKRFDIEQPVYFAELLWDALMSESARYKLEARD | failed
6 | DRTTYYSILGLTSNATSSEVHKSYLKLARLLHPDKTKSDKSEELFKAVVHAHSILTDEDQKLRYDRDLKIKGLHTYQPKK | failed
7 | DSVDLCIMEILKDILDLFHGGRVYIFEYDEYYRYQDCTYEVVAEGVLPEIDSLQRIPTDSLPWWRQQTLSGKPVILDSLDQLPKHAKAEYAILSRQNIKSLMITPLIAGEHVWGYMGIDLVKNYRNWNNEDFQWLSSLANIISICIELRKAKDEAVRERSFLRNLFRFMPMGYIRMTMVRDAAGLP | failed
8 | DYIEMKVPAQPEYVGIIRLTLSGVASRMGYTYDEIEDLKIAVSEACTNAVQHAYKEDKNGEVSIRFGVFEDRLEVIVADEGDSFDFDQKQQDLGPYTPSHTVDQLSEGGLGLYLMETLMDEVRVQNHSGVTVAMTKYLNGERVDHDTT | failed
9 | DYPIMIICPGGGFTYHSGREEAPIATRMMAAGMHTVVLNYQLIVGDQSVYPWALQQLGATIDWITTQASAHHVDCQRIILAGFSAGGHVVATYNGVATQPELRTRYHLDHYQGQHAAIILGYPVIDLTAGFPTTSAARNQITTDARLWAAQRLVTPASKPAFVWQTATDESVPPINSLKYVQAMLQHQVATAYHLFGSGIHGLALANHVTQKPGKDKYLNDQAAIWPQLALRWLQE | failed
10 | EAGGIGIWEWELKPNIFSWDKRMFELYEIPPHIKPNWQVWYECVLPEDRQHAEKVIRDSLQSRSPFKLEFRIAVKDGIRHIRALANRVLNKEGEVERLLGINMDMT | failed
11 | EAKAKANTTRSLQALINLQPQQATVITEQGDQQITVEQITLGMKLRIKPGEKVPVDGVVIQGESYIDESMLTGEPVPVLKAQEAQVSAGTLNTDGALIIEATGIGANTMLARIIRMVRTAQSSKPAIAKLADQ | failed
12 | EAQRELTEMEARTRLTTEMMPAHIAHVGRDLRYTYSNRRLSQVIPGRPSDILGLTGREALGEGLFARIRPCLLRALEGEASVLEFSDEDSGSRIRAAFTPDRTGDGPINGVYILSMDVT | failed
13 | EASSKSYRELIIEGLTALKERKGSSRPALKKFIKENYPIVGSASNFDLYFNNAIKKGVEAGDFEQPKGPAGAVKLAKK | not failed
14 | EDATPETVEYRQLSAADLLADTHLLREVFGLLVLAHYRTEPSDLARLLDAPNLTVRALTHEGHVVAVALLAQEGGLSASTRATMYEGGRVRGNMLPDVLSTQLRDEAAGVPVGQRVLRIATHAAVRSRGLGSKLLSEIRAEFADHVDWVGVSYGATPELVRFWADNGYNTVHLATSRNATSGEYSVVMLDP | failed
15 | EDFVDPWTVQTSSAKGIDYDKLIVRFGSSKIDKELINRIERATGQRPHHFLRRGIFFSHRDMNQVLDAYENKKPFYLYTGRGPSSEAMHVGHLIPFIFTKWLQDVFNVPLVIQMTDDEKYLWKDLTLDQAYSYAVENAKDIIACGFDINKTFIFSDLDYMGMSSGFYKNVVKIQKHVTFNQVKGIFGFTDSDCIGKISFPAIQAAPSFSNSFPQIFRDRTDIQCLIPCAIDQDPYFRMTRDVAPRIGYPKPALLHSTFFPALQGAQTKMSASDPNSSIFLTDTAKQIKTKVNKHAFSGGRDTIEEHRQFGGNCDVDVSFMYLTFFLEDDDKLEQIRKDYTSGAMLTGELKKALIEVLQPLIAEHQARRKEVTDEIVKEFMTPRKLSFDFQ | not failed
16 | EEIRKIPMFSSYNPGEPNKVLYLKNLSPRVTERDLVSLFARFQEKKGPPIQFRMMTGRMRGQAFITFPNKEIAWQALHLVNGYKLYGKILVIEFGKNKKQRS | not failed
17 | EGALPKASEATVCANNSKVSSPGEKVVLWTREADRVILTMCQEQGAQPHTFSVISQQLGNKTPVEVSHRFRELMQLFHTACE | not failed

Row | Sequence | protein production
18 | EGQPLTRLKHMEPRLMAELGGLCAKLDKALAHFDHPGLARTLQWDPQHAGALIDHLLPVLQDGGQRARIEHATRQANEHLMPLVDQLPSQAVHLDITDDNTVWARDAQRQWQLQGVIDFGDLLRTWRIADLSVTCAALLHHAEGDPLRILPAVQAYQALNPLTEAELRALWPLVLNRAAVLVLSSEQQLTVDPGNQYTRDNIAHEWEIFDTATAVPFALMEAAILQAAGLQPAAP | failed
19 | EGWMDEPDWRRFITAYHQEHAGITEQLFSLADTSPYAWLAEPLRAVEGTVLDLACGSAPTRQELPDADWVGVDLSAAELAEAARQGRGPLLRAAADALPAASASVGAVCAAMCLPVVTPLPQTLGEIRRVLRPGGVLAALVPSQSGLSPSGMLGWVRVMAALRAVRQPWPNPQARDGLPALLRTAGFRVRRDERHVFTLAIDSAGAAALLADALYLPGLTTHRAQAAKR | failed
20 | EGYEQDFAVLTAEITSKIARVPRLPPDEKKQMVANVEKQLEEARELLEQMDLEVREIPPQSRGMYSNRMRSYKQEMGKLETDFKRSRIA | not failed
21 | EHAKQASSYIPLDRLSISYCRSSGPGGQNVNKVNSKAEVRFHLASADWIEEPVRQKIALTHKNKINKAGELVLTSESSRYQFRNLAECLQKIRDMIAEA | not failed
22 | EHNYHPNAVAAGLRAGRTRSIGLVIPDLENTSYTRIANYLERQARQRGYQLLIACSEDQPDNEMRCIEHLLQRQVDAIIVSTSLPPEHPFYQRWANDPFPIVALDRALDREHFTSVVGADQDDAEMLAEELRKFPAETVLYLGALPELSVSFLREQGFRTAWKDDPREVHFLYANSYEREAAAQLFEKWLETHPMPQALFTTSFALLQGVMDVTLRRDGKLPSDLAIATFGDNELLDFLQCPVLAVAQRHRDVAERVLEIVLASLDEPRKPKPGLTRIKRNLYRRGVLSRS | not failed
23 | EIAQVTSAYVASGSEQLSLAPGQLILILKKNTSGWWQGELQARGKKRQKGWFPASHVKLLGPSSERA | not failed
24 | EIDYTAYPWFAGNMERQQTDNLLKSHASGTYLIRERPAEAERFAISIKFNDEVKHIKVVEKDNWIHITEAKKFDSLLELVEYYQCHSLKESFKQLDTTLKYPYK | failed
25 | EKIGDRTYRVVSRLSLEDLKDHIEEELDLEIEFGDEIEDQVDTVGGLIAFELGRVPLPGATVETCGLKLTAEGAKNRRGRLRMHSAVVEVGE | not failed
26 | EKQSIHRTQLEALDSVITDLETSAQKGISLTEPEIFASLLETCYSLRAIDHGVRVHHLIPPYLLRNNLGISSKLVRLYASCGYAEVAHEVFDRMSKRDSSPFAWNSLISGYAELGQYEDAMALYFQMAEDGVKPDRFTFPRVLKACGGIGSVQIGEAIHRDLVKEGFGYDVYVLNALVVMYAKCGDIVKARNVFDMIPHKDYVSWNSMLTGYLHHGLLHEALDIFRLMVQNGIEPDKVAISSVLARVLSFKHGRQLHGWVIRRGMEWELSVANALIVLYSKRGQLGQACFIFDQMLERDTVSWNAIISAHSKNSNGLKYFEQMHRANAKPDGITFVSVLSLCANTGMVEDGERLFSLMSKEYGIDPKMEHYACMVNLYGRAGMMEEAYSMIVQEMGLEAGPTVWGALLYACYLHGNTDIGEVAAQRLFELEPDNEHNFELLIRIYSKAKRAEDVERVRQMMVDRGLET | not failed
27 | ELGLRSKTNVVSLDKIIIDKKSSLITGFPEFRMVWKVVRQRVVDDLVSVLDTDYLDMELIPNLTRQIAEQSIYSYIENGLKLLIDYAQKEITIDHSSDRDKILMDIGKDPYVVSIKSKVYLQDGRQFQFTESRHKLEKFRFVDFAKRKK | not failed
28 | ELHAELVKRQHLETFLKTQIESELVDVYFQPIIETRTGNVVKFEALARFYHENSEYSTQEMISIIEDLELIAALDDVVCQTALKQWSHLQKIYGENIGLSINRSLNTKLDSLQVLQRSLDLIKASDVNPKLVTIELTETAYFEQDEEHAFALEQIRQEGIQIAIDDFGTGYSSFSYLEEGQFDVLKIDRKFVKNIHEGSTSYNIVKTITDLAHKLNVEVVAEGVESQRELEVLAGIGVDYMQGFLFSQA | failed
29 | ELPKKRELCKFYITGFCARAENCPYMHGDFPCKLYHTTGNCINGDDCMFSHDPLTEETRELLDKMLADDAEAGAEDEKEVEELKK | not failed
30 | EMVLLPAPQIPLIMKIMKNHTPTWLPGVPTLYEKIVAEATAKGVEIKGIRNSFSGASTLPVRTVEDWENLTGGLLVEGYGLTETSPVLCGNPMNGNRRPGYIGVPFPDTEIRIANPDNLDETMPDGEAGEVLARGPQIFQGYLNKPEATAATFHGDWFRTGDMGVMEEDGFIRLVSRIKEIIITGGFNVYPAEVEEALIAHPDVDDAAVVGRPRKDGSEDVVACIVLKDGAALDPEGLKTHCRKLLTRYKVPRTFYHFEALNKDQLGKVRRREVQQTLLERLGEK | failed
31 | ENDVRVETTLHQNTRIYDVRGQLFFSSSERFAKAFDFQENVAHVIIDLTHSHIWDVTTVASLDHIVDKFQKNGIQVTVKGLNEASSIMIEQYGTHSKI | failed
32 | ENPRNVGSLDKTSKNVGTGLVGAPACGDVMKLQIQVDEKGKIVDARFKTFGCGSAIASSSLATEWVKGKTVEEALTIKNTDIAKELCLPPVKLHCSMLAEDAIKAALADYKLKQESK | not failed
33 | EPAHGRQHTPCLFCDRLFASAEETFSHCKLEHQFNIDSMVHKHGLEFYGYIKLINFIRLKNPTVEYMNSIYNPVPWEKDEYLKPVLEDDLLLQFDVEDLYEPVSTPFS | not failed
